Test: soluble on expression in E. coli; label from the status in PepcDB or PDB records

Row | Sequence | soluble on expression in E. coli
1 | MRRGRGKGKKQNASAREDRGSGDEEKIPAYRRRGRPQKPMKDDFEEEEEEDDEEMVEKMEVEDEDEEIDDGSVTSKDLKERKRKMSNGSNTDLTEEENGLGSKPNTDDSTRSTSIGFRQNGSRRKSKPRRAAEAVVECNGV | soluble
2 | MGSDKIHHHHHHMACVRDKPVSGPPTSLSAPHLRISLAFRGGLCPYSRARPEKDYAFKGNFVLRDLIANGQSMRTISLPRGRQRLHAMPTSTGYEVREDEIYDWDGRKRGQTPFTVLQHTISGTGRLRYENRNYRLQENDTLLVLVPHNHRYWLASDERWEYFWISMNGEEALRIHKSILSISGPVFRLKPATIDHLADCSLRLINGAASAGAASAIAYEAAMALYDDVFGSHAFAEKLSAMQPVIDHINANLDRPLPVADLVQISGLSRAHFSRCFAESEGLPPAEFVLQQRLQRAAKLLTKADFLPVKEVAILCGFEDANYFSKVFRRLYGTTPSQFRTTGMYANLRTPARRGVRVSDDET | not soluble
3 | MAHHHHHHMGKGAVHPNGSNFCRAIKYNIVDKMRMLVETNLYDRPRWLEWAERAPPIEIHNISLKSRYNNNKYIDLVKFLLKKYPHLRFQDCYVEGNNNVKGYDFFRNDHIITQMATHQLYYMNRGYGKKDALQKVEKEFYNRRMELEKKQKINMCLSIDKKIKPLYTDGYAYLYEKMADNEKAHLGLILKKLRAMREKLEKEQGGDGAQPHT | not soluble
4 | MAYRERAAWAPEGYMLPLPGACLPSLPENLPGAPRPYRKGVSAGFVFRQGDACVPVVRGMGVVAAFGGEVVKVDPDFQELSEEAWQALLERVREGASPEEMDILRGLEVHVRHPDGRTTVYAHLQAPYPGLKVGSRVHRGDPIGYVGNTGLRGGASRLLFEVWEGEPDRSAFLFQGLEGEELLRRARAFFGLP | soluble
5 | LAADQFIVDRPMPEDPYGKTIIAGYHWFSDWGRDTMISLPGLTISTGRPEVARSIIRTFARYVDQGMLPNRFPDAGEQPEYNTVDATLWYFEAVRAYYSATDDDTLLGELFPILADIIDWHCRGTRYNIHLDAADGLLYAGVTGVQLTWMDAKVDDWVVTPRIGKPIEVNALWYNALRTMAKFARHLGKPHQEYEAMADRAKYRFSRFWNDETGYCYDVLDSPNGDDAALRPNQIFAVSLPESPLTPAQQRSVVEVCGRRLLTSHGLRSLAPDHPQYQGKYGGNQYQRDGAYHQGTVWGWLLGPFVLAHLRVYKNPEQARQFLEPMANHLTKHGLGSLSEIFDGDAPMTARGCIAQAWTVAEVLRAWFATES | not soluble
6 | MGSSHHHHHHSSGLVPRGSHMRLCHPCPWEWTFFQGNCYFMSNSQRNWHDSITACKEVGAQLVVIKSAEEQNFLQLQSSRSNRFTWMGLSDLNQEGTWQWVDGSPLLPSFKQYWNRGEPNNVGEEDCAEFSGNGWNDDKCNLAKFWICKKSAASCSRDEEQFLSPAPATPNPPPA | soluble
7 | AHHHHHHGSIIIYTTFPTWESAEKVTKALLEERLVACANLREHKAFYWWQGKIEEDNEIGVILKTREDLWEEVKKRIKELHPYTVPAIIKINVEDVNEEYLKWLLEETKST | not soluble
8 | MGSDKIHHHHHHMLSNKNKIRKLLNGIETGDPDAALVVNEQKYIQHNPHTKEGNIGLAELFKQIAKTGPRVNMIRVFEDKDFVFAHMEYHFSTLKVAFEVFRFEDGFAVEHWDNMQLMQKVNASGRSMLDGYLITEDHDLTEFNRSRVSLFANEILIKRKLDLLIDFVCDDNFIQHSPLLADGISALRSTLSATSKQKYKITYSKIHRVLAEGNFVLSVSEGLMDEKHCSFYDLYRIEKGKIVEHWDTIEPIPPRTEWKNDNGKF | not soluble
9 | MAHHHHHHMTGWRQIVRCSICHLNRCAYPVTPALTDLKHLKHMWTLHGEAAPTADKQCLLLALAAEAGEQLAELNSRQAAAQAKAKEAQLAIAKHLGMLEMAVEASSYKIVDSTTPVNADSSANTAKLSLKIARGNNAGCSLTKAGEGNPFADDPLNEQNILNLKLTAATDVVKSLKETAISIRSASSNCPSDSTGKTGIKEALGSCNLGGSAEYEFTTAAATTGNAQSSVPVFKEESTTTNCGEVSGLSAEAMSPAQKLAKAICEAIKAKAGEGKTLRTATGETLSNRKTIQTFLRNCVPEFQKKN | not soluble
10 | MIKLKTPNSMEIAEQPAVITYVPELNAFRGKFLGLSGYCDFVSDSIQGLQKEGELSLREYLEDCKAAGIEPYARTEKIKTFTLRYPESLSERLNNAAAQQQVSVNTYIIETLNERLNHL | not soluble
11 | FLDKPTLLSPEELKAASRGNGEYALYYEGRNGWWQYDERTSRELEDAFSKGKRTSEMLIAGFLYVADLENMGQYRRNEHGRRRKIKRDIIDIPKKGV | soluble
12 | DTRNEAEACLRYVKTKFARTMLGILKATQDNPKETWRLVPLQDFTAESDIDWTQPVAEIDRQLYRKYGLNESEIAFVEEKVRPMD | not soluble
13 | SLQCLRFAGAATHPAQAPCMPGPACEPVETFLKTCQAPGSEPTGAASLRAKYLPPSTASIRVSAGLLRAALEDSHSGFHLCSATLRWLLAENAAVDVVRAQTLSSIQGIAPDGTDVNLTVHEVAVTDLSPAGPIQAVEIQVESSSLANMCRAHHAIIRRIQTMVTEQAALGSSPPDLRMQYLQQIHANHQELLREVQALRDQLCTEDELSSCSTAQKLLHIYKQLRNPSLVLL | not soluble
14 | MEVAPEQPRWMAHPAVLNAQHPDSHHPGLAHNYMEPAQLLPPDEVDVFFNHLDSQGNPYYANPAHARARVSYSPAHARLTGGQMCRPHLLHSPGLPWLDGGKAALSAAAAHHHNPWTVSPFSKTPLHPSAAGGPGGPLSVYPGAGGGSGGGSGSSVASLTPTAAHSGSHLFGFPPTPPKEVSPDPSTTGAASPASSSAGGSAARGEDKDGVKYQVSLTESMKMESGSPLRPGLATMGTQPATHHPIPTYPSYVPAAAHDYSSGLFHPGGFLGGPASSFTPKQRSKARSCSEGRECVNCGATATPLWRRDGTGHYLCNACGLYHKMNGQNRPLIKPKRRLSAARRAGTCCANCQTTTTTLWRRNANGDPVCNACGLYYKLHNVNRPLTMKKEGIQTRNRKMSNKSKKSKKGAECFEELSKCMQEKSSPFSAAALAGHMAPVGHLPPFSHSGHILPTPTPIHPSSSLSFGHPHPSSMVTAMG | soluble
15 | MAIIIGADKAGQELKEVIKDYLKEGKYEVVDVSENEVRDFVDTTLAVVKEVNASDDNLGIVIDAYGVGSFMVATKIKGMVAAEVSDERSAYMTRGHNNARIITLGSEISAPGIAKNIIKGFVEGKYDGGRHQVRVDMLNKMC | soluble
16 | MMSTPPQNTRPVFSVDGLWKVFGPKAERVPADPELAALSAAELSERTGCTAAVRDVSFDVHKGEVFVVMGLSGSGKSTLVRCLTRLIEPTAGTIAIDGEDVRAMDRTRLRELRRHRASMVFQHFGLLPHRTVLDNVAYGLEIQGLGKAERRERAAEVVAKVGLEGMEQRKPGQLSGGQQQRVGLARALAVDPEVLLFDEPFSALDPLIRRDMQEEVVRLHREEGRTMVFITHDLNEALRLGDRIALMRDGRVVQLGTPEEIVGSPADDYVREFVRDVPREQVMTVRTAMRAASAEEAGSGPAVAPDATVSEAIEAVARAGSPARVVDSGRCVGVVDSEALLDVVAGVGASGPAPAVTAVPPFEPSRDFGNAGAGAAEAAPGDVTGEEVALEHHHHHH | soluble
17 | FLVPPTVEQKTRPFTLPNLPLSSLSNSRAPLPISSMGISPDNVQSVQFQNGRCTLDGRLVGTTPVSLSHVAKIRGTSNGTVINLTELDGTPFHPFEGPAPIGFPDLGGCDWHINMTQFGHSSQTQYDVDTTPDTFVPHLGSIQANGIGSGNYVGVLSWISPPSHPSGSQVDLWKIPNYGSSITEATHLAPSVYPPGFGEVLVFFMSKMPGPGAYNLPCLLPQEYISHLASEQAPTVGEAALLHYVDPDTGRNLGEFKAYPDGFLTCVPNGASSGPQQLPINGVFVFVSWVSRFYQLKPVGTASSARGRLGLRR | soluble
18 | SKREHNHRRITVTAAIGNKHRRQLATNLHAIEHHAFEHFIAWVAENHFEPEADCKLGTRLRHAGVPGQQ | soluble
19 | REHDFDDLKFEHFLASAAGAFPAFLEVAEKRIIGEGVLRAVKESMRWHRAENVHFGAFLLLVPLISSWDAGGMVDIAEAARNRLRRTDFRDSLSVLEAFRLSNARVVEAGELNLKDRKTEEEIAQKKINLYEWMKMAPEENLIARELVDGFKISIEGAKFLLSFGNSGKAVVELYYHLLSKFPDPLVIAKMGREYAEKITEWAEKARTEEERKELDEKLLKDGANPGTIADLTASSIFLALAEGWR | soluble
20 | ATGPRYKVPMRRRREARTDYHQRLRLLKSGKPRLVARKSNKHVRAQLVTLGPNGDDTLASAHSSDLAEYGWEAPTGNMPSAYLTGLLAGLRAQEAGVEEAVLDIGLNSPTPGSKVFAIQEGAIDAGLDIPHNDDVLADWQRTRGAHIAEYDEQLEEPLYSGDFDAADLPEHFDELRETLLDGDIEL | soluble
21 | MDQERARKRGITMGKQEFDGMSRISGLLTPELRATIEAVLAKLAAPGACNPDDQTPLVDDTPDADAVRRDTRSQAQRHHDGLLAGLRGLLASGELGQHRGLPVTVVVSTTLKELEAATGKGVTGGGSRVPMSDLIRMASNAHHYLALFDGAKPLALYHTKRLASPAQRIMLYAKDRGCSLEHHHHHH | soluble
22 | EETDESNDMRPLFDTILKYTPAPSGSADETLQLQISQLDYDNYTGRLGIGRILNGRIKPGQTVAVMNHDQQIAQGRINQLLGFKGLERVPLEEAEAGD | not soluble
23 | MGSDKIHHHHHHMAQYSAEFKQAKVLVLGDVMLDRYWFGATNRISPEAPVPVVRVQENEERAGGAANVAMNIASLNVPVQLMGLIGQDETGSALSLLLEKQKIDCNFVALETHPTITKLRILSRHQQLLRLDFEEDFNNVDCKDLLAKLESAVKNYGALILSDYGKGTLKDVQKMIQIARKANVPVLIDPKGTDFERYRGATLLTPNMSEFEAVVGKCNTEEEIIEKGLKLISDIELTALLVTRSEKGMTLLRPNQEPYHLPTVAKEVFDVTGAGDTVISVLATALADGRSFEESCYLANVAAGIVVGKLGTSTVSTVELENAIHARPETGFGIMSEAELKDAVAQAKARGEKIVMTNGCFDILHPGHISYLENARKLGDRLIVAVNSDDSVKRLKGESRPINNLENRMAVLAGLASVDWLVPFTEDTPQRLIGEILPDLLVKGGDYKPEEIAGSKEVWANGGDVKVLNFENGCSTTNVIEKIKLLKD | not soluble
24 | MAHHHHHHMKGVKFRDNFVKLKEEGPRNATTTNFYGSYFLSENEHLFDINEFEKNLEMKMHKNEENLLILEVKNLNVSIANALRRIMLAEVPTIAIEKVNIFQNTGIIADEILCHRLGLIPFKFDADLINFKEEYEKYNHLNCFCFKLHVKFTKKAGSSETCQSIYSRDLKWCPINEHQKARFQKNPPRVVDDNILITKLSNGQEIELICFLEKGIGKTHAKWSPVCTAVYKMYPAFSFNTCEKFTQEEKKDLVNICPKNVFDVEDSDTLVAKNPLNCSSCRVCIEKYPKKISFEKVKNHFIFTIESTGCFSSADIFRKALLILKDKVVSVKEVLEDQTKA | not soluble
25 | MSTTANKERCLEMVAAWNRWDVSGVVAHWAPDVVHYDDEDKPVSAEEVVRRMNSAVEAFPDLRLDVRSIVGEGDRVMLRITCSATHQGVFMGIAPTGRKVRWTYLEELRFSEAGKVVEHWDVFNFSPLFRDLGVVPDGL | soluble

Source: the DeepSol protein solubility set
